Data published in the supplement of paper PMC9170038.

System: MS2 coat protein
Assay: apparent KD of MS2 coat protein; designed switch direction (-1 OFF switch, 1 ON switch): -1; higher = weaker reporter binding
In short: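 Normalised cluster fluorescence was curve-fitted, and each design's median over clusters is its apparent KD. Before this, SNAP-549-labelled MS2 coat protein was titrated from 0.7 or 1.5 nM, doubling to 3 µM, over RNA switches transcribed on Illumina chips by stalled E. coli RNA polymerase. Titrations had no input, 200 uM small-molecule ligand, or an oligonucleotide input, and steps lasted 0.8–1.5 h (lowest) to 10–20 min (highest).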

[1] = input ligand: microRNA oligo, concentration not stated
[2] = Eterna round: R95, input ligand: FMN 200 uM
[3] = Eterna round: R95, input ligand: microRNA oligo, concentration not stated
[4] = Eterna round: R95, input ligand: none

Sequence	apparent KD of MS2 coat protein (input ligand: FMN 200 uM)	apparent KD of MS2 coat protein (input ligand: none)	further results
AAGUAGACAGUGAGGAUAUUGGUGGAAUGACACAUUAAGAAGGUACAUGAGGAUCACCCAUGUGGGUAAUGUCG [Brourd's EX4 #26] (Eterna round: R97, puzzle: Brourd's mod of Exclusion 4)	64.8 nM	45.8 nM	–
GACGCUGACCGAGGAUAUACAAUAAAACAACAAACUCCUCGUGUCAGAACAUGAGGAUCACCCAUGUAGAAGGCGGCAGGUCUA [Rilebibidi] (Eterna round: R96, puzzle: Exclusion NG 2)	78.5 nM	58.1 nM	apparent KD of MS2 coat protein [1]: 44.4 nM
AAAUUAGCAAGUAGGUCCGACAUGAGGAUCACCCAUGUAAUCUGAAAUUACGCUGCAUGAAAGUGCGCUCGUCUUAG [Sensor-V1 #10] (Eterna round: R97, puzzle: Sensor, turn-off variant 1)	111 nM	168 nM	–
GAUUAUGCGAGCUUUAGGGACAUGAGGAUCACCCAUGUUCGUCUUAUUGAUCUGGAUGCACUGACAUACCUAAAUCU [JMF 80] (puzzle: Sensor v3, turn-off variant 1)	–	–	apparent KD of MS2 coat protein [2]: 29 nM; apparent KD of MS2 coat protein [3]: 37.5 nM; apparent KD of MS2 coat protein [4]: 28.3 nM
UUUAGUUCAGGAUAUGUAGAUUUUAACAUGAGGAUCACCCAUGUAGAUCCUGAUCCUGCUACAGAAGGGAAAAUUU [Mat - Exclusion 5 - Eli Mod - D9] (Eterna round: R97, puzzle: Exclusion 5)	24.4 nM	25.6 nM	–
GAGAACUGAGGAUAUACAUGAGGAUCACCCAUGUUGAGAAGAAAGUAUAAAAGAUUGUGUAGAAGGCAGAGAGA [JR_Ex3_Sub069] (Eterna round: R97, puzzle: Exclusion 3)	52.3 nM	35.8 nM	–
CUCGUGUGAGGAUAUCUAUUCCACGGACGGGAGUCUUGAAGAGAGAAGGCACAUGAGGAUCACCCAUGUAAUAA [Latequ] (puzzle: Exclusion 4)	–	–	apparent KD of MS2 coat protein [3]: 107 nM
UGCAGACGAGGAUAUGAUCAAUAAUACAUGAGGAUCACCCAUGUAAUACUGAUCCAUGGAUCAGAAGGUGUCUGCA [E5/5-B2] (Eterna round: R97, puzzle: Exclusion 5)	19.5 nM	17.5 nM	–
UCGUGUAUAGAGGAUAUAUUAUUUUUUUUAACAAUAGAAGGCUAAACAUGAGGAUCACCCAUGUAUUUGGUUUU [JR_Ex6_Sub051] (Eterna round: R97, puzzle: Exclusion 6)	69.2 nM	22.9 nM	–
GAUUAUGCGAGCUUUAGGGACAUGAGGAUCACCCAUGUUCGUCUUAUUAAUCUGGGUACACUGGCAUACCUAAAUCU [JMF 7] (puzzle: Sensor v3, turn-off variant 1)	–	–	apparent KD of MS2 coat protein [2]: 26.7 nM; apparent KD of MS2 coat protein [3]: 37.7 nM; apparent KD of MS2 coat protein [4]: 28.1 nM
UAUGACUGAGGAUAUUGUACUGCUGACAUGAGGAUCACCCAUGUAUGCUAACUCGGCCGUCGAGAAGGCAGUUAUG [BotMod 26 - Jieux - Exclusion 5] (Eterna round: R97, puzzle: Exclusion 5)	16.5 nM	52 nM	–
UGCUACGGAGGAUAUACAUGAGGAUCACCCAUGUGAUAGAUUAUCGCGAAAGCGUAAUGUAGAAGGCCGUAGCU [jl-ex3-4.11 jl mod] (Eterna round: R97, puzzle: Exclusion 3)	556 nM	54.4 nM	–
CUUAAUUGUCACAUGGGUGACAUGAGGAUCACCCAUGUCACAAGCUUUUUGUUCGUCUUAUAAUUAACCCAUGUGAC [Stov1/12-B3] (Eterna round: R97, puzzle: Sensor, turn-off variant 1)	13.8 nM	13.7 nM	–
GGUCCUGAUGAUUUCCUAUACAUGAGGAUCACCCAUGUAUGUUUAUUUUGUUUUUAGCUUUUUGGUCGUCAAUAAUA [Mod-Hoo-honey-3] (Eterna round: R97, puzzle: Sensor, turn-off variant 1)	43.3 nM	43.4 nM	–
GCACUGCGAGGAUAUACAUGAGGAUCACCCAUGUGUCGGCAGCCACGGUAGCACGAGUGUAGAAGGCGCGUUAG [EX3 #45] (Eterna round: R97, puzzle: Exclusion 3)	146 nM	31.2 nM	–
AAUGUUGAUGUGAGGAUAUACAUAGUUUGACCGUAGUAGAAGGCACAUGAGGAUCACCCAUGUAGAUGUUUGGU [JR_BME4_Sub004] (puzzle: Brourd's mod of Exclusion 4)	–	–	apparent KD of MS2 coat protein [3]: 12.5 nM
GGACCUCCUGAGGAUAUUGUAUCACCCGACUGAUAAGAAGGCAGAACAUGAGGAUCACCCAUGUGGGUACUCGG [Bingo-Bango-14] (Eterna round: R97, puzzle: Exclusion 6)	34.6 nM	38.4 nM	–
AAAUUGGUAGAGGAUAUCGUACAGGAAACGAUGCGAGAAGGCUGCACAUGAGGAUCACCCAUGUUCAGUUGCGA [EX6 #41] (Eterna round: R97, puzzle: Exclusion 6)	17.9 nM	17.6 nM	–
CACCGUUACUGAGGAUAUCGUACAUGAGGAUCACCCAUGUAAUAAAUGAGAAUUUCGGAUGUAUGCGAGAAGGCAGGAAUCGGC [Ostracism 36 - Jieux - Exclusion NG 2] (Eterna round: R96, puzzle: Exclusion NG 2)	31.6 nM	32.2 nM	apparent KD of MS2 coat protein [1]: 19.5 nM
GACCACUCAGGAUAUCGGACGGGAAACAUGAGGAUCACCCAUGUGAUGCUGAUAUUCGCACGAGAAGGGAGAAUGA [EX5 B.21] (Eterna round: R97, puzzle: Exclusion 5)	19.8 nM	18.8 nM	–
UAAAAGCGAGGAUAUACAUGAGGAUCACCCAUGUGAGGCGAAACGCCUCGGGCCAUCAGUAGAAGGUGCAAAAC [Veorgebe] (puzzle: Exclusion 3)	–	–	apparent KD of MS2 coat protein [3]: 70.7 nM
CCAGGCUGUGUGAGGAUAUGCUGGUCCUUGGAUCAGCAGAAGGCACAUGAGGAUCACCCAUGUGAGUAGCUUGG [JL bmx4 3.27] (puzzle: Brourd's mod of Exclusion 4)	–	–	apparent KD of MS2 coat protein [3]: 15.7 nM
UAUGUUGUUGUGAGGAUAUACUUAGUUUGACCGUAGUAGAAGGCACAUGAGGAUCACCCAUGUAGAUGCUUGGU [JR_BME4_Sub006] (puzzle: Brourd's mod of Exclusion 4)	–	–	apparent KD of MS2 coat protein [3]: 5.53 nM
ACAAGCUUAAAAAUCCUAAACAUGAGGAUCACCCAUGUUCGUCUUAUAAAAAUAAAAAUAAAAAAUAAAAAAUAAAA [Sensor V2: 70] (Eterna round: R96, puzzle: Sensor v2, turn-off variant)	49.1 nM	51.9 nM	apparent KD of MS2 coat protein [1]: 228 nM
